Experimental data published in patent publication US8026218 (UNIVERSITY OF ARIZONA, dated 2011).
Read-outs that look alike come from different tables or passages of the source. Square brackets hold non-standard residues; d marks the D form. Ends that are not written are not given here. * marks the point of attachment. O‑Bzl(CF3)2 = C-terminal bis(trifluoromethyl)benzyl ester; NH(3,5-(CF3)2-benzyl) = FC(F)(F)c1cc(CN*)cc(C(F)(F)F)c1; OBzl(3,5-(CF3)2) = FC(F)(F)c1cc(CO*)cc(C(F)(F)F)c1; Phe(4-Cl) = N[C@@H](Cc1ccc(Cl)cc1)C(=O)O

Tests used:
[1] = molecular target: T1, human NK1 receptor (human, UniProt P25103 1-407); assay: competition vs [3H]Substance P, hNK1 CHO cell membranes
T1 construct: whole, on cells; membrane preparations of the transfected cells were used; also called hNK1; human neurokinin-1 receptor

[2] = molecular target: T2, human δ opioid receptor (human, UniProt P41143 1-372); assay: competition vs [3H]DPDPE, hDOR cell membranes
T2 construct: whole, on cells; membrane preparations of the transfected cells were used; also called hDOR; DOR

[3] = molecular target: T3, rat NK1 receptor (rat, UniProt P14600 1-407); assay: competition vs [3H]Substance P, rNK1 CHO cell membranes
T3 construct: whole, on cells; membrane preparations of the transfected cells were used; also called rNK1; rNK-1

[4] = molecular target: T2, human δ opioid receptor; assay: cell-based or functional assay
[5] = molecular target: T4, rat µ opioid receptor (rat, UniProt P33535 1-398); assay: cell-based or functional assay
[6] = molecular target: T4, rat µ opioid receptor; assay: competition vs [3H]DAMGO, rMOR cell membranes
[7] = molecular target: T1, human NK1 receptor; assay: competition vs [3H]Substance P, hNK1 CHO cell membranes; remark: listed apart in the source
[8] = molecular target: T2, human δ opioid receptor; assay: cell-based or functional assay; remark: listed apart in the source
[9] = molecular target: T5, µ opioid receptor of the guinea pig isolated ileum (guinea pig, UniProt P97266 1-98); assay: cell-based or functional assay
[10] = molecular target: T3, rat NK1 receptor; assay: competition vs [3H]Substance P, rNK1 CHO cell membranes; remark: listed apart in the source
[11] = molecular target: T5, µ opioid receptor of the guinea pig …; assay: cell-based or functional assay; remark: listed apart in the source
[12] = molecular target: T2, human δ opioid receptor; assay: competition vs [3H]DPDPE, hDOR cell membranes; remark: listed apart in the source
[13] = molecular target: T3, rat NK1 receptor; assay: competition vs [3H]Substance P, rNK1 CHO cell membranes; remark: listed apart in the source
[14] = molecular target: T5, µ opioid receptor of the guinea pig …; assay: cell-based or functional assay; remark: listed apart in the source
[15] = molecular target: T4, rat µ opioid receptor; assay: competition vs [3H]DAMGO, rMOR cell membranes; remark: listed apart in the source
[16] = molecular target: T2, human δ opioid receptor; assay: competition vs [3H]DPDPE, hDOR cell membranes; remark: listed apart in the source
[17] = molecular target: T5, µ opioid receptor of the guinea pig …; assay: cell-based or functional assay; remark: listed apart in the source
[18] = molecular target: guinea pig NK1 receptor (guinea pig, UniProt P30547 1-407); assay: cell-based or functional assay
[19] = molecular target: T2, human δ opioid receptor; assay: cell-based or functional assay; remark: listed apart in the source
[20] = molecular target: T4, rat µ opioid receptor; assay: cell-based or functional assay; remark: listed apart in the source
[21] = molecular target: T3, rat NK1 receptor; assay: competition vs [3H]Substance P, rNK1 CHO cell membranes; remark: listed apart in the source

T2 sequence (P41143 whole entry, stated change not applied): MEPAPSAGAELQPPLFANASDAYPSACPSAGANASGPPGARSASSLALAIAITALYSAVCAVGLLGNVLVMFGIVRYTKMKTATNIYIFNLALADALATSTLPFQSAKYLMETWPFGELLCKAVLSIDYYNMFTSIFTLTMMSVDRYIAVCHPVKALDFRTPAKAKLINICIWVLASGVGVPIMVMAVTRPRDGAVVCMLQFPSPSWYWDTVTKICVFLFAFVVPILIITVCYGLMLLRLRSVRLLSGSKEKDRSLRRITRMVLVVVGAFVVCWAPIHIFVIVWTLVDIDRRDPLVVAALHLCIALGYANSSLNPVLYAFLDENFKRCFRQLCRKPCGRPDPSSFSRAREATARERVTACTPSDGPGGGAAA
T1 sequence (P25103 whole entry): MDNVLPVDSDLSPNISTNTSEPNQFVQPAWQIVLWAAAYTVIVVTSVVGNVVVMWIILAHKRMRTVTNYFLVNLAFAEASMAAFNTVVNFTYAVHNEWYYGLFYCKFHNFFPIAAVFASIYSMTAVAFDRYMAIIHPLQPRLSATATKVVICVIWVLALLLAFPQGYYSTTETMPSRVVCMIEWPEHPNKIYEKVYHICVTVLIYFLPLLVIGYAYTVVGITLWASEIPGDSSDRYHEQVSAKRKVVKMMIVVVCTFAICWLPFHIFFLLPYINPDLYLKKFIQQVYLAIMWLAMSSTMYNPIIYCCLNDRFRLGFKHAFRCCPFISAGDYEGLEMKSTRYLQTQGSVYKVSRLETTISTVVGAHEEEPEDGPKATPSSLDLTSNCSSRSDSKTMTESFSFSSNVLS
T3 sequence (P14600 whole entry): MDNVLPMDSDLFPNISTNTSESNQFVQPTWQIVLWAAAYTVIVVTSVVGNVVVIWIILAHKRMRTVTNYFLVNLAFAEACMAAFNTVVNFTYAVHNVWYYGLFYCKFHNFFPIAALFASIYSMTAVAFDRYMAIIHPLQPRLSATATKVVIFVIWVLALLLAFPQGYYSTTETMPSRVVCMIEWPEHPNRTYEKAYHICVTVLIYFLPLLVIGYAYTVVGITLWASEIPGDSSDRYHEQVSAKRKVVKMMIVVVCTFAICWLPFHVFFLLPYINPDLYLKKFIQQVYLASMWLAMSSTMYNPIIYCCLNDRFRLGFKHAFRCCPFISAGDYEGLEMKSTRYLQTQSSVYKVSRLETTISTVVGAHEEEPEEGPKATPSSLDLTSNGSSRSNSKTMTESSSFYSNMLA
Chain of guinea pig NK1 receptor (P30547 whole entry): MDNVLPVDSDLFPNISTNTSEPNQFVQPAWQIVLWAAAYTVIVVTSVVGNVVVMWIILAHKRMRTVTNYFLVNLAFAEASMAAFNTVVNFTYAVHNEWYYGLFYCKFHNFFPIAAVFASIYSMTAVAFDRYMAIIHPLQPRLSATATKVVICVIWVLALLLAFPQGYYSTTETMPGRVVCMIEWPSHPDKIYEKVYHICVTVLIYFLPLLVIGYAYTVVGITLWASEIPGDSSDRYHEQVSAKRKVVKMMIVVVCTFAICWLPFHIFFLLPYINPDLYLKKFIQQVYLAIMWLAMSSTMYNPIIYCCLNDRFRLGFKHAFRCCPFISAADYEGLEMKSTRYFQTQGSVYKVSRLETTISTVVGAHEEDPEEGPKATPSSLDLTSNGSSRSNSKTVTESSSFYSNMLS
T4 sequence (P33535 whole entry): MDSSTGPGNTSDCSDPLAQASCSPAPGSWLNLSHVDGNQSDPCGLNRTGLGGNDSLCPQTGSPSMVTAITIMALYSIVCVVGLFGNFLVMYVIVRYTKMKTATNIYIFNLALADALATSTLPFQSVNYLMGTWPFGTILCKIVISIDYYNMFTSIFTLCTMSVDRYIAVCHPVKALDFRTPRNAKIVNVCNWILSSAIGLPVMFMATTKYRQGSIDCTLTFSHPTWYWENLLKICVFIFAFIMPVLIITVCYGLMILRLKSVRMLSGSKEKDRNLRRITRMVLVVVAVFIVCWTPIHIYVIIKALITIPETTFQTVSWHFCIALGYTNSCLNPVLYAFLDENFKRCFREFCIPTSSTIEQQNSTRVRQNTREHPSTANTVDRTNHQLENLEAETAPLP
T5 sequence (P97266 whole entry): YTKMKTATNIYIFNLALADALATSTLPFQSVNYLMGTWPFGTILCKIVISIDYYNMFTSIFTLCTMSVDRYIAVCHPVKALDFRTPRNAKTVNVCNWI

Binder | Ki [2] [nM] | Ki [3] [nM] | GTP EMax [4] | GTP EMax [5] | Ki [6] [nM] | Ki [7] [nM] | Ki [15] [nM] | Ki [16] [nM] | GPI/LMMP SP antagonist Ke [18] [nM] | GTP binding EC50 [19] [nM] | GTP binding Emax [19] [%] | GTP binding Emax [20] [%] | IC50 [21] [nM] | other results
Y[dA]G[Phe(4-Cl)]-{OBzl(3,5-(CF3)2)} (also called NP52) [Tyr-D-Ala-Gly-pClPhe-O-3′,5′(CF3)2-Bzl] |  |  |  |  |  |  |  |  |  |  |  |  |  | Ki [1]: 8.04 nM
Y[dA]GFAW-{O‑Bzl(CF3)2} (also called NP31) [Tyr-DAla-Gly-Phe-Ala-Trp-O-Bzl(CF3)2] | 1.2 | 8.6 | 91 | 50 | 3.6 |  |  |  |  |  |  |  |  | 
Y[dA]GFLW-{O‑Bzl(CF3)2} (also called NP37) [Tyr-DAla-Gly-Phe-Leu-Trp-O-Bzl(CF3)2] | 2.9 | 0.29 | 60 | 54 | 23.3 | 0.09 |  |  |  |  |  |  |  | 
Y[dA]GF[dA]W-{O‑Bzl(CF3)2} (also called NP40) [Tyr-DAla-Gly-Phe-D-Ala-Trp-O-Bzl(CF3)2] | 3.9 | 2.4 | 89 | 19 | 2.8 | 0.011 |  |  |  |  |  |  |  | 
Y[dA]GFPW-{O‑Bzl(CF3)2} (also called NP39) [Tyr-DAla-Gly-Phe-Pro-Trp-O-Bzl(CF3)2] |  | 1.6 | 56 | 47 | 14.8 | 0.1 |  |  |  |  |  |  |  | 
Y[dA]GFMW-{O‑Bzl(CF3)2} (also called NP38) [Tyr-DAla-Gly-Phe-Met-Trp-O-Bzl(CF3)2] | 0.6 | 0.089 | 36 | 51 | 3.3 | 0.009 |  |  |  |  |  |  |  | 
Y[dA]GFMPLW-{NH(3,5-(CF3)2-benzyl)} (also called TY027) [TyrDAlaGlyPheMetProLeuTrpNHBn(CF3)2] |  |  |  |  |  |  |  |  |  |  |  |  |  | [35S]GTPγS binding EC50 [8]: 8.6 nM; [35S]GTPγS binding Emax [8]: 58%; [35S]GTPγS binding LogEC50 [8]: -8.1; GPI (µ) IC50 [9]: 490 nM; Ki [10]: 7.3 nM; LogIC50 [10]: -7.6; GPI (µ) IC50 [11]: 490 nM; LogIC50 [12]: -8.8; Ki [13]: 7.27 nM; GPI/LMMP IC50 [14]: 488 nM
Y[dA]GF[dF]PLW-{OBzl(3,5-(CF3)2)} (also called TY007) [TyrDAlaGlyPheDPheProLeuTrpOBn(CF3)2] |  |  |  |  |  |  | 410 | 110 | 69.6 | 16.7 | 22.9 | 23.6 | 66.7 | GPI/LMMP, inhibition at 1 mM [17]: 9%; GTP binding EC50 [20]: 345 nM
Y[dA]GFLPLW-{OBzl(3,5-(CF3)2)} (also called TY004) [TyrDAlaGlyPheLeuProLeuTrpOBn(CF3)2] |  |  |  |  |  |  | 23.3 | 5 | 19.4 | 9.6 | 42.5 | 44.5 | 20.9 | GPI/LMMP IC50 [17]: 341 nM
Y[dA]GFGPLW-{OBzl(3,5-(CF3)2)} (also: TFA salt, also called TY006) [TyrDAlaGlyPheGlyProLeuTrpOBn(CF3)2] |  |  |  |  |  |  | 27 | 36.1 | 5.4 | 50.2 | 33.6 | 35.9 | 15.6 | GPI/LMMP IC50 [17]: 384 nM; GTP binding EC50 [20]: 41.7 nM
Y[dA]GFFPLW-{OBzl(3,5-(CF3)2)} (also called TY003) [TyrDAlaGlyPhePheProLeuTrpOBn(CF3)2] |  |  |  |  |  |  | 28.3 | 14.6 | 14.4 | 20.8 | 39 | 36.3 | 19.3 | GPI/LMMP, inhibition at 1 mM [17]: 7%; GTP binding EC50 [20]: 58.7 nM
YAGFMPLW (D-Ala at 2; Met(O) at 5; C-terminal O-3,5-Bzl(CF3)2 ester, also called TY023) [TyrDAlaGlyPheMet(O)ProLeuTrpOBn(CF3)2] |  |  |  |  |  |  |  | 5.1 | 7.8 |  | 52.8 |  | 54.5 | GPI/LMMP IC50 [17]: 154 nM
